Experiment [1] deals with ATG101 (human) (UniProt Q9BSB4). Description: cross-linking.
Experiment [2] has the same target. As to the kind of experiment: mass photometry.
Experiment [3] addresses ATG101 co-expressed with ULK1 (human) (UniProt Q9BSB4). As to the kind of experiment: mass photometry.
In a further experiment the target is His-ATG101 (human) (UniProt Q9BSB4). Description: mass photometry.
Experiment [4] concerns the target phospho-mimetic ATG101 mutants S11D and S203D (human) (UniProt Q9BSB4). As to the kind of experiment: mass photometry.
Experiment [5] addresses phosphorylated ATG101 (His-ATG101 phosphorylated in vitro by ULK1) (human) (UniProt Q9BSB4). Description: mass photometry.
Experiment [6] has as its target phosphorylated ATG101 purified from insect cells treated with Okadaic Acid (human) (UniProt Q9BSB4). Description: mass photometry.
In the next experiment the target is T1, ^MBPATG13 full-length (UniProt O75143 1-517).
T1 sequence: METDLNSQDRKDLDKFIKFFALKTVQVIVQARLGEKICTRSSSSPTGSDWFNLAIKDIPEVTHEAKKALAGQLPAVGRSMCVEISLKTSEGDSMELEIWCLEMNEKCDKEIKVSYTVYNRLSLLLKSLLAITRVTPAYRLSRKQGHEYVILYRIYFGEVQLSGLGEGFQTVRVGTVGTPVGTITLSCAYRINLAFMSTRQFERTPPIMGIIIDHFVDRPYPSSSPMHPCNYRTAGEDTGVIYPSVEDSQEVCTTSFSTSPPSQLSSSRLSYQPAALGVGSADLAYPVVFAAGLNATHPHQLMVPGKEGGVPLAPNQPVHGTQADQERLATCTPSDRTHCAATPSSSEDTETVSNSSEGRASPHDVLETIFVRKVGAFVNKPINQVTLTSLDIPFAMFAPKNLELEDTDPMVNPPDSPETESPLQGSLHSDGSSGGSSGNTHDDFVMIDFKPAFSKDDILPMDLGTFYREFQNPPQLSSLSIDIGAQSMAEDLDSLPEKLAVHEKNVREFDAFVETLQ
Description: fluorescence polarisation. For orientation: In fluorescence polarisation assays a small probe gives low polarisation when free and higher when bound to something large.

Experiment [7] addresses ATG13-ATG101^Alexa488 (pre-formed complex) (UniProt Q9BSB4). As to the kind of experiment: fluorescence polarisation.

Experimental findings from doi:10.1101/2025.06.27.661946 (bioRxiv, 2025) are described below.

In general, stoichiometry N refers to a count of units in the complex or per binding partner. By Kd is commonly meant a measure of binding affinity in units of concentration. The kon is the second-order rate constant of association. A low value points to slow association.

Turning to “ATG101 (from UniProt Q9BSB4 1-218) (natural protein)”, the stoichiometry N in the experiment with ATG101 (human) [1] and with ATG101 (human) [2] was 2 each time.
On to “ATG101 co-expressed with ULK1 (from UniProt Q9BSB4 1-218) (natural protein)”, for which the stoichiometry N in [3] is 2.
On to “His-ATG101 (from UniProt Q9BSB4 1-218) (natural protein)”, for which the stoichiometry N with His-ATG101 (human) turned out to be 2.
In experiment [4], “phospho-mimetic ATG101 mutants S11D and S203D (from UniProt Q9BSB4 1-218) (natural protein)” showed a stoichiometry N of 2.
For “phosphorylated ATG101 (His-ATG101 phosphorylated in vitro by ULK1) (from UniProt Q9BSB4 1-218) (natural protein)”, in [5], the equilibrium dissociation constant (Kd) was in the range of 100 to 250 nM and the stoichiometry N amounted to 2.
Consider “phosphorylated ATG101 purified from insect cells treated with Okadaic Acid (from UniProt Q9BSB4 1-218) (natural protein)”, for which the stoichiometry N in experiment [6] was determined as 2.

B1: phosphorylated ATG101^Alexa488 (natural protein)
chain: MNCRSEVLEVSVEGRQVEEAMLAVLHTVLLHRSTGKFHYKKEGTYSIGTVGTQDVDCDFIDFTYVRVSSEELDRALRKVVGEFKDALRNSGGDGLGQMSLEFYQKKKSRWPFSDECIPWEVWTVKVHVVALATEQERQICREKVGEKLCEKIINIVEVMNRHEYLPKMPTQSEVDNVFDTGLRDVQPYLYKISFQITDALGTSVTTTMRRLIKDTLAL
Turning to B1, the kon with ^MBPATG13 full-length was found to be 14.7 M⁻¹ s⁻¹.

B2: ATG101^Alexa488 (natural protein)
chain: B1 chain
In turn, B2 gave an association rate constant (kon) with ^MBPATG13 full-length of 14.7 M⁻¹ s⁻¹.

B3: ^MBPATG9A (natural protein)
chain: MAQFDTEYQRLEASYSDSPPGEEDLLVHVAEGSKSPWHHIENLDLFFSRVYNLHQKNGFTCMLIGEIFELMQFLFVVAFTTFLVSCVDYDILFANKMVNHSLHPTEPVKVTLPDAFLPAQVCSARIQENGSLITILVIAGVFWIHRLIKFIYNICCYWEIHSFYLHALRIPMSALPYCTWQEVQARIVQTQKEHQICIHKRELTELDIYHRILRFQNYMVALVNKSLLPLRFRLPGLGEAVFFTRGLKYNFELILFWGPGSLFLNEWSLKAEYKRGGQRLELAQRLSNRILWIGIANFLLCPLILIWQILYAFFSYAEVLKREPGALGARCWSLYGRCYLRHFNELEHELQSRLNRGYKPASKYMNCFLSPLLTLLAKNGAFFAGSILAVLIALTIYDEDVLAVEHVLTTVTLLGVTVTVCRSFIPDQHMVFCPEQLLRVILAHIHYMPDHWQGNAHRSQTRDEFAQLFQYKAVFILEELLSPIVTPLILIFCLRPRALEIIDFFRNFTVEVVGVGDTCSFAQMDVRQHGHPQWLSAGQTEASVYQQAEDGKTELSLMHFAITNPGWQPPRESTAFLGFLKEQVQRDGAAASLAQGGLLPENALFTSIQSLQSESEPLSLIANVVAGSSCRGPPLPRDLQGSRHRAEVASALRSFSPLQPGQAPTGRAHSTMTGSGVDARTASSGSSVWEGQLQSLVLSEYASTEMSLHALYMHQLHKQQAQAEPERHVWHRRESDESGESAPDEGGEGARAPQSIPRSASYPCAAPRPGAPETTALHGGFQRRYGGITDPGTVPRVPSHFSRLPLGGWAEDGQSASRHPEPVPEEGSEDELPPQVHKV
In experiment [7], B3 yielded a kon of 15000 M⁻¹ s⁻¹.
